# According to patent US7939057B2, “Methods and compositions for modulating the mobilization of stem cells” (Mount Sinai School of Medicine, priority 2006, dated 2011):
# What was measured:
# [1] = system: Runx2; test: Q-PCR of Runx2 in BMNCs after G-CSF; type: in vivo; settings: bone marrow of Cgt+/+ mice after G-CSF; n=4, p<0.001
# Protocol: (§1) Methods, primers and PCR conditions are available in Table S3. Briefly, total RNA was extracted from BMNC using TRIzol solution (Invitrogen, Carlsbad, Calif.). The bone carcass was then immersed in liquid nitrogen, and pulverized into powder followed by RNA extraction with TRIzol. Total RNA (1 μg) was treated with DNaseI (Invitrogen, Carlsbad, Calif.), and reverse transcribed using first strand cDNA synthesis with random primers (Promega, Madison, Wis.). Q-PCR was performed using SYBR Green (Molecular Probes) on an ABI PRISM 7900HT Sequence Detection System (Applied Biosystems, Foster city, CA). All experiments were done in triplicate and normalized to GAPDH.
# [2] = system: bone lining osteoblasts; test: Morphology of bone lining osteoblasts (CD44 immunofluorescence); type: in vivo; settings: G-CSF-treated wild-type C57BL/6 mice
# Protocol: For the morphology of bone lining osteoblasts, femoral bones were fixed overnight in formalin, decalcified in 10% EDTA (pH 7.4) for 48 h, snap-frozen in isopentane chilled in liquid nitrogen, and sectioned at 10 μm thickness. Sections were fixed with 4% parafolmaldehyde for 20 min, stained with anti-CD44 (KM201) followed by donkey Alexa-488-anti-rat IgG (Molecular Probes, Eugene, Oreg.), and mounted in Vectashield Mounting Medium with DAPI (Vector Laboratories). TUNEL assay was done using an In Situ Cell Death Detection Kit (Roche Applied Science, Penzberg, Germany) according to manufacturer's recommendation. Images were captured and analyzed with Olympus BX61WI (Hauppauge, N.Y.) with 60× objective mounted on a motorized X, Y stage and a Z focusing drive (Applied Scientific Instrumentation, Eugene, Oreg.). Images are collected with Coolsnap HQ digital camera (Ropert Scientific, Munich, Germany). A Dell workstation with SlideBook software (Intelligent Imaging Innovations, Denver, Colo.) provided for synchronization of components, data acquisition and image deconvolution.
# [3] = system: CXCL12; test: CXCL12α and CXCL12β mRNA by Q-PCR in BM and bone after G-CSF; type: in vivo, mice
# Protocol: as §1
# [4] = system: rhCXCL12α; test: Degradation of rhCXCL12α by BMEF of G-CSF-treated mice (Western blot); type: biochemical, human; settings: 24 h at 37° C.
# Protocol: PBS or BMEF (35 μl) from G-CSF-treated and control mice was incubated with 50 ng of rhCXCL12α (R&D Systems) for 24 h at 37° C. The reactions were stopped by the addition of sample buffer containing protease inhibitor cocktail (Sigma) and DTT (final concentration 10 mM) followed by boiling for 5 min at 95° C. Samples were separated by electrophoresis on 16% polyacrylamide Tris-tricine gel and transferred onto PVDF membrane (0.2 μm pore size, Millipore, Bedford, Mass.). Membranes were blocked in TBS with 0.05% Tween 20 and 4% milk, incubated with 0.5 μg/ml of mouse monoclonal anti-CXCL12 antibody (clone 79018.111, R&D Systems) then with 1/20,000 dilution of horseradish peroxidase-anti-mouse IgG (Jackson Immunoresearch, West Grove, Pa.). Signal was detected with the enhanced chemiluminescence method (West Dura Extended Duration Substrate, Pierce, Rockford, Ill.).
# [5] = system: NE; test: NE content in heart and bone after G-CSF (HPLC); type: in vivo, C57BL/6 mice
# Protocol: Mice were sacrificed and hearts were rapidly removed, weighed, frozen in liquid nitrogen. Tissues were homogenized in HPLC solvent (0.1M TCA, which contains 10^−2 M sodium acetate, 10^−4 M EDTA and 10.5% methanol, pH 3.8). Hindlimb long bones were harvested, weighted, frozen in liquid nitrogen. Pooled bones were crushed using a bessman tissue pulverizer (Spectrum Laboratories) pre-chilled in a liquid nitrogen bath. Pulverized tissues were homogenized (620 mg/ml) in 0.4N HClO4 containing 0.84 mg/mL EDTA and 12.5 μL of 4% sodium pyrosulfite solution. Bone catecholamines were extracted using solid Al203 and then desorbed from the Al203 using 0.1 N acetic acid. NE levels were determined by HPLC at the Neurochemistry Core Lab, Vanderbilt University's Center for Molecular Neuroscience Research (Nashville, Tenn.).
# [6] = system: hematopoietic stem and progenitor cells (HSPCs); test: G-CSF-induced mobilization of hematopoietic progenitors (circulating CFU-C); type: in vivo, mice
# Protocol: To induce HSPC mobilization, mice were injected with recombinant human G-CSF (Filgrastim, Amgen, Thousand Oaks, Calif., 250 μg/kg/day, every 12 hours, 8 divided doses, s.c.) in PBS supplemented with 0.1% endotoxin free bovine serum albumin (BSA) or fucoidan (Sigma; 2 doses of 100 mg/kg with 2 h interval, i.p.) in PBS. Blood was harvested 3 h (G-CSF) or 1 h (fucoidan). CFU-C assays were carried out as previously described (Katayama, Y., and Frenette, P. S. (2003). Galactocerebrosides are required postnatally for stromal-dependent bone marrow lymphopoiesis. Immunity 18, 789-800).
# A chronic guide cannula (1.0 mm) was implanted stereotaxically into the lateral ventricle (coordinates AP, −0.7 mm; DV, −2.4 mm; ML, 1.5 mm, from bregma). One week after implantation, mice received a reduced dose of G-CSF (25 μg/kg daily for 4 doses) either by ICV infusion (rate: 0.4 μL/min) or by s.c. injection.
# Newborn C57BL/6 mice were injected s.c. with 6OHDA (100 mg/kg, Sigma) or vehicle (saline) on postnatal days 2, 4, 6, 8 and 9. HSPC mobilization was induced at 3 weeks of age. For SNS disruption in adult C57BL6 mice, 4 week-old animals were injected i.p. with 2 doses of 6OHDA or vehicle, 100 mg/kg on day 0, 250 mg/kg on day 2, and G-CSF treatment was begun on day 5. For β-adrenergic receptor blockade, 4 week-old C57BL/6 mice were treated with propranolol (0.5 g/L in drinking water, Sigma) or control pure water for 3 weeks prior to mobilization. For rescue experiments, clenbuterol (2 mg/kg/day, i.p.) was injected starting day −2 prior to and continued during G-CSF treatment.
molecule,measurement,setting,value
"G-CSF: recombinant human G-CSF (Filgrastim, Amgen), hematopoietic cytokine used to elicit HSPC mobilization (protein, UniProt P09919 31-207, looked up, filgrastim, recombinant human G-CSF (Filgrastim, Amgen), hematopoietic cytokine used to elicit HSPC mobilization) Granulocyte …: TPLGPASSLPQSFLLKCLEQVRKIQGDGAALQEKLVSECATYKLCHPEELVLLGHSLGIPWAPLSSCPSQALQLAGCLSQLHSGLFLYQGLLQALEGISPELGPTLDTLQLDVADFATTIWQQMEELGMAPALQPTQGAMPAFASAFQRRAGGVLVASHLQSFLEVSYRVLRHLAQP","levels of Runx2, reduction",[1],65%
same,appearance of bone-lining osteoblasts,[2],flattened appearance with shorter projections
same,CXCL12 mRNA levels in bone,"[3]; after G-CSF treatment, p<0.05 for CXCL12α, p=0.06 for CXCL12β",moderately decreased
same,mRNA expression of both CXCL12 isoforms in BM,"[3]; after G-CSF, Cgt−/− and normal littermates",profoundly decreased
same,degradation of recombinant CXCL12 by BMEF,[4]; BMEF from G-CSF-treated Cgt+/+ mice,completely degraded
same,degradation of recombinant CXCL12 by BMEF,[4]; BMEF from G-CSF-treated Cgt−/− mice,complete degradation
same,bone NE levels,[5]; 3 h after G-CSF administration (250 μg/kg s.c.),dramatic reduction
same,cardiac NE levels,[5]; single dose of G-CSF (250 μg/kg s.c.),slightly reduced
same,HSPC mobilization by route of G-CSF,"[6]; C57BL/6 mice, ICV infusion vs s.c. injection, 25 μg/kg daily for 4 doses",robust HSPC mobilization occurred only when mice were treated systemically
same,G-CSF-induced mobilization in chimeric mice,[6]; CD45.1 wild-type mice reconstituted with Cgt+/+ or −/− BM,similar
same,G-CSF-induced mobilization of HSPCs,[6]; Cgt−/− mice compared to Cgt+/− or +/+ littermates,little mobilization
same,G-CSF-triggered mobilization of CFU-Cs and Lin-Sca-1+c-kit+ cells,[6]; Dbh−/− compared to Dbh+/− littermates,dramatically compromised
same,numbers of circulating progenitors after G-CSF,"[6]; Lepr(db/db) vs Lepr(+/db) mice, human G-CSF 250 μg/kg/day, n=5",no difference
same,circulating CFU-Cs elicited by G-CSF,"[6]; Rag 1−/− and IL7Rα−/− mice, data not shown",elicited at levels similar to those of wild-type mice
